Key:
[1] = target: T1, GST-Grk2 (Homo sapiens, UniProt P25098); experiment: ADP-Glo kinase assay with tubulin; format: biochemical; details: […] ATP, […] pig brain tubulin, […] MgCl2, pH […] °C; no P-Rex1
T1 construct: recombinant GST fusion from Sf9 cells, commercial
T1 sequence (P25098 1-689): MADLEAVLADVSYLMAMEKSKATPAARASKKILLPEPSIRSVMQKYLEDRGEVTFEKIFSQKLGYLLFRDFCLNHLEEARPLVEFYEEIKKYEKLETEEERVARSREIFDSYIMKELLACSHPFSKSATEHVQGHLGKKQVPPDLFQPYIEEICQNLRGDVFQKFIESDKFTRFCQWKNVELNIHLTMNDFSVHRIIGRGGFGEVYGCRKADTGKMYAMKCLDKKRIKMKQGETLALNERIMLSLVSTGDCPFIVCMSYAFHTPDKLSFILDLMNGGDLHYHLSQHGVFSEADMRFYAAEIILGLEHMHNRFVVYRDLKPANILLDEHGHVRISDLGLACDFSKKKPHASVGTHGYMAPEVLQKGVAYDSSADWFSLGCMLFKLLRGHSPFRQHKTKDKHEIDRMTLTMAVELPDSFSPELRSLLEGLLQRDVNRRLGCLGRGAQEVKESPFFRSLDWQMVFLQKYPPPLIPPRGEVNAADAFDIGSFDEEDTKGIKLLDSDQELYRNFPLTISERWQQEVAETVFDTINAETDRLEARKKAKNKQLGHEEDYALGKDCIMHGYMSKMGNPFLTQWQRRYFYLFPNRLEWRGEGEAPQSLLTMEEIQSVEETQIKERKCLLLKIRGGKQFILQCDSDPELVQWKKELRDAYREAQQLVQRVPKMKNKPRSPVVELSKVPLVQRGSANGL

[2] = target: T2, Recombinant human wild type EE-P-Rex1 (human, UniProt Q8TCU6 1-1659); experiment: pull-down; as the GST-Grk2 pull-down of EE-P-Rex1, with increasing concentrations of prenylated EE-Gβ1γ2 (up to 20 pmol per sample) added during the binding assay; 0.008% cholate in all samples; details: both partners purified
T2 construct: source: baculovirus-infected Sf9 cells, purified using the EE tag

[3] = target: T3, Recombinant human wild type His-P-Rex2 (human, UniProt Q70Z35 1-1606); experiment: pull-down; 5 pmol P-Rex1 or P-Rex2 protein (2.5 pmol for P-Rex1 mutants) with 5 pmol GST, GST-Grk2 or GST-Grk5 in 20 μL detergent-free buffer (50 mM HEPES pH 7.2, 150 mM NaCl), 1 h on ice; GST proteins isolated on magnetic glutathione agarose, 45 min at 4°C, 4 washes in lysis buffer 2 (1% NP-40); western blot with P-Rex1 or P-Rex2 and GST antibodies; details: both partners purified
T3 construct: source: baculovirus-infected Sf9 cells, purified (Ni-NTA agarose, PD-10 desalting); not shown: 6His, N-terminal, kept

[4] = target: T4, GEF-dead His-P-Rex2 (P-Rex2 E30A,N212A) (human, UniProt Q70Z35 1-1606, E30A | N212A); experiment: as above; details: both partners purified
T4 construct: P-Rex2, human, with alanine mutations at Glu30 and Asn212 in the catalytic DH domain; also called GEF-dead P-Rex2; source: baculovirus-infected Sf9 cells, purified (Ni-NTA agarose, PD-10 desalting); not shown: 6His, N-terminal, kept

[5] = target: T5, GEF-dead EE-P-Rex1 (E56A, N238A) (human, UniProt Q8TCU6 1-1659, E56A | N238A); experiment: as above; details: both partners purified
T5 construct: P-Rex1, human, with point mutations E56A and N238A in the DH domain that abolish Rac-GEF activity; also called GEF-dead P-Rex1; source: baculovirus-infected Sf9 cells, purified using the EE tag
T5 sequence (Q8TCU6 whole entry E56A/N238A, the tested form may be a part): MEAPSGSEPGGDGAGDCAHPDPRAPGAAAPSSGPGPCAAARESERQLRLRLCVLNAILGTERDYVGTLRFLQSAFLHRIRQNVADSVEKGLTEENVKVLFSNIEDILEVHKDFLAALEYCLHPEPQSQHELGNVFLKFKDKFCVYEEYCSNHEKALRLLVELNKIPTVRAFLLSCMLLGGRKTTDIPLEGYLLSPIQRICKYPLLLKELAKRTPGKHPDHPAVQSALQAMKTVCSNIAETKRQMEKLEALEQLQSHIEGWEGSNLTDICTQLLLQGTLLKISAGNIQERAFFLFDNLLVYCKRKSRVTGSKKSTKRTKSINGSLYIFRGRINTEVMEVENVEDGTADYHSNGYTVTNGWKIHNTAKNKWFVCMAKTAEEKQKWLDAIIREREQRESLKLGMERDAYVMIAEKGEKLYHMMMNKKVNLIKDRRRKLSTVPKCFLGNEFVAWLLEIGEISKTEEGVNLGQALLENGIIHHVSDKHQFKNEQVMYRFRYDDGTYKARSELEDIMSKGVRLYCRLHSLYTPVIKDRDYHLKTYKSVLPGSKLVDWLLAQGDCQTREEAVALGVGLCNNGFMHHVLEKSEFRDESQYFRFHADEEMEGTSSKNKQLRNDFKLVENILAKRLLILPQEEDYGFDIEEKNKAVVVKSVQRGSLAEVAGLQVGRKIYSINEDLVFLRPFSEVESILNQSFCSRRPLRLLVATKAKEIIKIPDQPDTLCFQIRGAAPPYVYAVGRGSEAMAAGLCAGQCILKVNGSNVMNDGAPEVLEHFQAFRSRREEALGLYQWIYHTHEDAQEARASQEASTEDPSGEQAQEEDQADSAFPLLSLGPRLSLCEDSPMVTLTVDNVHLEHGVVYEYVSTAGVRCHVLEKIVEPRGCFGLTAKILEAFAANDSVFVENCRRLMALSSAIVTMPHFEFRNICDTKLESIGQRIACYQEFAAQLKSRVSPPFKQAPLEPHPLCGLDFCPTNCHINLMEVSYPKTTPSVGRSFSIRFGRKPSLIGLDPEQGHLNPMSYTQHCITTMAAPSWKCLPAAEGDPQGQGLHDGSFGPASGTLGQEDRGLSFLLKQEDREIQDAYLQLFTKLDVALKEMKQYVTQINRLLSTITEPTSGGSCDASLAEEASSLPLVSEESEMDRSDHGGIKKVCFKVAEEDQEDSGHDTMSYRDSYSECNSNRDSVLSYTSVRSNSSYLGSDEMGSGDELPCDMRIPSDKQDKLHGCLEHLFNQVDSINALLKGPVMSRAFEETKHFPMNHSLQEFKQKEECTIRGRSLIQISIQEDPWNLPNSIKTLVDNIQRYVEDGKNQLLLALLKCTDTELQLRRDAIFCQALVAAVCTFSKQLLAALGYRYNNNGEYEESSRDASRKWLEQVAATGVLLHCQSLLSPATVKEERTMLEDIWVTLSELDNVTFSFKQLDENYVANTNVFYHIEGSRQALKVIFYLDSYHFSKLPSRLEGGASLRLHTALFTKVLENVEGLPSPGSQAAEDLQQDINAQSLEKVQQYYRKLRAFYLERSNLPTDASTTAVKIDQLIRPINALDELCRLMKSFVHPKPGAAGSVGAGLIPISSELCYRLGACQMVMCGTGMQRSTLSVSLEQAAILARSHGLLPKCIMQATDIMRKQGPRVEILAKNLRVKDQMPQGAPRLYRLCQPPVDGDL

T4 sequence (Q70Z35 whole entry E30A/N212A, the tested form may be a part): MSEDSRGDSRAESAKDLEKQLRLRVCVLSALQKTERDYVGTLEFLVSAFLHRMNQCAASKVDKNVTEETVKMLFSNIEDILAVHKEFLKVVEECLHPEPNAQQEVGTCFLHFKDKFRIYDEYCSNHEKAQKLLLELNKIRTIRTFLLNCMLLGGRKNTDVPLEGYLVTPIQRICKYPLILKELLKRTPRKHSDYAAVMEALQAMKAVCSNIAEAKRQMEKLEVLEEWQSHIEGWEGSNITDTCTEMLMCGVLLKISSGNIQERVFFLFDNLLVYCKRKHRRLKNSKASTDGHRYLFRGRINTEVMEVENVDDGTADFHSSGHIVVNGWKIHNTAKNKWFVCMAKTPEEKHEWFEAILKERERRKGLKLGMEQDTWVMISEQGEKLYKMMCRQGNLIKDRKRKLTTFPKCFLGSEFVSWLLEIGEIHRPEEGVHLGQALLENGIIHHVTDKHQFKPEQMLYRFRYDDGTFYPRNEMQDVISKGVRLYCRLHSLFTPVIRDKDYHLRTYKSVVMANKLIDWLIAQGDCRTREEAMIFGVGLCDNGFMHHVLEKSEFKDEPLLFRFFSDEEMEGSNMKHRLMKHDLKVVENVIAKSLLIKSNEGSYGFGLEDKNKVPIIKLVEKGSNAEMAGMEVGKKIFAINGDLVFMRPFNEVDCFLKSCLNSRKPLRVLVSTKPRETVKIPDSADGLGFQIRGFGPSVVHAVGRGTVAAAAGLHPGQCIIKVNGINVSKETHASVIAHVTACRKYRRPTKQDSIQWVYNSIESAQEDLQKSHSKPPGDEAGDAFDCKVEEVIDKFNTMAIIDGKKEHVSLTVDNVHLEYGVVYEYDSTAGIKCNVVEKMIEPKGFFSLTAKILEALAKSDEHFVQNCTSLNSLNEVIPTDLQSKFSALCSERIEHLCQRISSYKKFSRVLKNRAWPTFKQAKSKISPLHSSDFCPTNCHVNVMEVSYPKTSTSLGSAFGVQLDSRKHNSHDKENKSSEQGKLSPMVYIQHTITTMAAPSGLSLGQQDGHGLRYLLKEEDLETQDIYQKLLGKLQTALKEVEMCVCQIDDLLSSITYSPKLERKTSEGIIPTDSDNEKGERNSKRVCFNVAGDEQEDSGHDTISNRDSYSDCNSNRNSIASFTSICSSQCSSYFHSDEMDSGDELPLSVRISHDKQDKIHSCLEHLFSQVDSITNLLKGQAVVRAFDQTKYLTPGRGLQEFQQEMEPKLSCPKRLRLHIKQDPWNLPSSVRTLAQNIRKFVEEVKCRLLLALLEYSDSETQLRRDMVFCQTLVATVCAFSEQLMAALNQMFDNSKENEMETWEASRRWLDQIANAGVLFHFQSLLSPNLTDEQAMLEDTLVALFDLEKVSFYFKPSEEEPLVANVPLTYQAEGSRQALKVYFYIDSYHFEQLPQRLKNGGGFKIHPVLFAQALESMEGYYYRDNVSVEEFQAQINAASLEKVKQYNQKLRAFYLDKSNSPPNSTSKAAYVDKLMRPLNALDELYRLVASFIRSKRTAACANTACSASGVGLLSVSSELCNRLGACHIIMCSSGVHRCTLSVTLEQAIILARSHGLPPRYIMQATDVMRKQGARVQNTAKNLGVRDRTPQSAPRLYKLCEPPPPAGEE
T2 sequence (Q8TCU6 whole entry): as the sequence (Q8TCU6 whole entry E56A/N238A, the tested form may be a part) above, with A56E, A238N counted along it
T3 sequence (Q70Z35 whole entry): as the sequence (Q70Z35 whole entry E30A/N212A, the tested form may be a part) above, with A30E, A212N counted along it

Nc1ncnc2c1ncn2[C@@H]1O[C@H](COP(=O)(O)OP(=O)(O)OP(=O)(O)O)[C@@H](O)[C@H]1O [ATP]
ADP-Glo kinase assay with tubulin [1]: GST-Grk2 was able to phosphorylate tubulin

B1: Recombinant human GST-Grk2 (enzyme, UniProt P25098 1-689, looked up)
chain: T1 sequence (P25098 1-689)
notes: G protein-coupled receptor kinase 2 (Grk2), human, Sf9 cell-derived recombinant GST fusion; also called G protein-coupled receptor kinase 2; source: bought: Abcam (ab125620), Sf9 cell-derived, purified recombinant
binding result [2]: binds | binding result [3]: binds | binding result [4]: binds | binding result [5]: binds
